What was measured:
蛋白激酶p38δ (p38δ-2×Strep) = target: T1, 蛋白激酶p38δ (p38δ-2×Strep) (Homo sapiens (Human), UniProt O15264 1-365); assay: indirect ELISA, p38δ coated, nanobody at 0-6.4 μM, anti-FLAG detection, 4-parameter fit
T1 construct: Expressed from pET28a-p38δ-2×Strep in E. coli BL21(DE3) and purified on MagStrep beads; The tag is placed C-terminal on the strength of the vector name only; Any further vector residues are not described; not shown: 2×Strep tag
T1 sequence: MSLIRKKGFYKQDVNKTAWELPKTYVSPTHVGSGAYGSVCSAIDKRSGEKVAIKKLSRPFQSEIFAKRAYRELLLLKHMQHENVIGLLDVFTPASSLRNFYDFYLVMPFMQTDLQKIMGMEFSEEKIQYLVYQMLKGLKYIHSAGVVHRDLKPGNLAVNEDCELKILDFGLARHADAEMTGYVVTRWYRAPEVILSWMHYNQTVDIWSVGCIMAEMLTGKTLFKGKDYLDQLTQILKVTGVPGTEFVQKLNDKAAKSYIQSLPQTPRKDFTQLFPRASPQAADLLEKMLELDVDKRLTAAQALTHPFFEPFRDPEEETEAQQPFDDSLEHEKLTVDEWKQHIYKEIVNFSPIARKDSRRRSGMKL

p38γ (p38γ-2×Strep) = target: T2, p38γ (p38γ-2×Strep) (Homo sapiens (Human), UniProt P53778 1-367); assay: ELISA, p38 proteins coated on the plate, nanobody periplasmic extract, anti-FLAG detection, OD450
T2 construct: Expressed from pET28a-p38γ-2×Strep in E. coli; not shown: 2×Strep tag
T2 sequence: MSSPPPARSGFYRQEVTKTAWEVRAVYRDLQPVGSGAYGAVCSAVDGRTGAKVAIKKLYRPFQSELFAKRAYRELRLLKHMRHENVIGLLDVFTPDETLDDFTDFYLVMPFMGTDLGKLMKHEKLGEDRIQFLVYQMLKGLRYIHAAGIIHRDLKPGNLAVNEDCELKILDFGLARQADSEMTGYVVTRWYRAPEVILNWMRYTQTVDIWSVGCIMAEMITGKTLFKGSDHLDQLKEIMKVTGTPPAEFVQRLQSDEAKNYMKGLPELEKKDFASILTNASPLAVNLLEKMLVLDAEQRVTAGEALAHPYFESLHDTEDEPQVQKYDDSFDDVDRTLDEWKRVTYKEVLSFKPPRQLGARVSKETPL

B1: 纳米抗体Nb13-1 (VHH)
VHH: QVQLVESGGALVQPGGSLRLSCAASGWWGQRGWLRWYRQAPGKEREWVCGISLRRNRYSYEDSVKGRFTCSRDDARNTVYLQLNSLKPEDTAVYYCAPLSLLHDEDNHSSNYWGQGTQVTVSS
notes: Expressed from pET22b-NB-FLAG in E. coli BL21(DE3); It was used as periplasmic extract in several assays; also called 特异性结合蛋白激酶p38δ的纳米抗体; not shown: C-terminal FLAG tag fused in pET22b
Kd (蛋白激酶p38δ (p38δ-2×Strep)): 1320 nM
binding result (p38γ (p38γ-2×Strep)): no binding

From CN113501876A (WEST CHINA HOSPITAL SICHUAN UNIV, dated 2021)
